From PMC3965691 (Biochemistry, 2011)
Changes are numbered by the printed parent chain. Names may count otherwise.

T1: HI-2(1-152) (human, UniProt P41236 1-152)
T1 sequence (looked up): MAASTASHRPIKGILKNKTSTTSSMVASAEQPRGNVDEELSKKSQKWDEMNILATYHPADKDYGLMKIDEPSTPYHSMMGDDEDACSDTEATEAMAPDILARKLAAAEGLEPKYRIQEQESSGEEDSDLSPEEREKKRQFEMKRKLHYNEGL

B1: His6-HI-2 (human phosphatase inhibitor-2, wild type, full length) (natural protein, UniProt P41236 1-205, looked up)
chain: MAASTASHRPIKGILKNKTSTTSSMVASAEQPRGNVDEELSKKSQKWDEMNILATYHPADKDYGLMKIDEPSTPYHSMMGDDEDACSDTEATEAMAPDILARKLAAAEGLEPKYRIQEQESSGEEDSDLSPEEREKKRQFEMKRKLHYNEGLNIKLARQLISKDLHDDDEDEEMLETADGESMNTEESNQGSTPSDQQQNKLRSS
B2: HI-2(I68A) (natural protein, human, UniProt P41236 1-205, looked up)
chain: B1 chain with I68A
B3: GST-Pin1iso (human Pin1 isomerase domain, residues 46-163, fused to GST) (domain or fragment, UniProt Q13526 46-163, looked up)
chain: KNGQGEPARVRCSHLLVKHSQSRRPSSWRQEKITRTKEEALELINGYIQKIKSGEEDFESLASQFSDCSSAKARGDLGAFSRGQMQKPFEDASFALRTGEMSGPVFTDSGIHIILRTE

How the values were obtained:
HI-2(1-152) = biological target: T1, HI-2(1-152); assay: pull-down
[1] = biological target: B1; assay: pull-down
[2] = biological target: Pin1 free of GST (thrombin-cleaved GST-Pin1) (human, UniProt Q13526 1-163); assay: SEC
HI-2(I68A) = biological target: B2; assay: pull-down

| binding result [1] | stoichiometry N [2] | Binder | also measured |
| --- | --- | --- | --- |
| binds | – | MADEEKLPPGWEKRMSRSSGRVYYFNHITNASQWERPSGNSSSG (domain or fragment, UniProt Q13526 1-44, looked up) [GST-Pin1ww (human Pin1 WW domain, residues 1-44, fused to GST)] | binding result (HI-2(1-152)): binds |
| – | 1 I-2 per Pin1 (2:2) | B1 | – |
| binds | – | MADEEKLPPGWEKRMSRSSGRVYYFNHITNASQWERPSGNSSSG (domain or fragment, human, UniProt Q13526 1-44, looked up, phosphoserine at 16 (PKA)) [PKA phosphorylated GST-Pin1ww] | – |
| – | 1 I-2 per Pin1 (1:1) | B2 | – |
| – | – | B3 | binding result (HI-2(I68A)): binds |
